Source: publication PMC7055321
Several values for one entry are separate records, joined by “and”; a condition that tells them apart may be missing. Equal values may be shown once.

Biological target: ACE (angiotensin-I converting enzyme) from rabbit lung (rabbit) (UniProt P12822)
Chain of UniProt P12822 (P12822 34-1310): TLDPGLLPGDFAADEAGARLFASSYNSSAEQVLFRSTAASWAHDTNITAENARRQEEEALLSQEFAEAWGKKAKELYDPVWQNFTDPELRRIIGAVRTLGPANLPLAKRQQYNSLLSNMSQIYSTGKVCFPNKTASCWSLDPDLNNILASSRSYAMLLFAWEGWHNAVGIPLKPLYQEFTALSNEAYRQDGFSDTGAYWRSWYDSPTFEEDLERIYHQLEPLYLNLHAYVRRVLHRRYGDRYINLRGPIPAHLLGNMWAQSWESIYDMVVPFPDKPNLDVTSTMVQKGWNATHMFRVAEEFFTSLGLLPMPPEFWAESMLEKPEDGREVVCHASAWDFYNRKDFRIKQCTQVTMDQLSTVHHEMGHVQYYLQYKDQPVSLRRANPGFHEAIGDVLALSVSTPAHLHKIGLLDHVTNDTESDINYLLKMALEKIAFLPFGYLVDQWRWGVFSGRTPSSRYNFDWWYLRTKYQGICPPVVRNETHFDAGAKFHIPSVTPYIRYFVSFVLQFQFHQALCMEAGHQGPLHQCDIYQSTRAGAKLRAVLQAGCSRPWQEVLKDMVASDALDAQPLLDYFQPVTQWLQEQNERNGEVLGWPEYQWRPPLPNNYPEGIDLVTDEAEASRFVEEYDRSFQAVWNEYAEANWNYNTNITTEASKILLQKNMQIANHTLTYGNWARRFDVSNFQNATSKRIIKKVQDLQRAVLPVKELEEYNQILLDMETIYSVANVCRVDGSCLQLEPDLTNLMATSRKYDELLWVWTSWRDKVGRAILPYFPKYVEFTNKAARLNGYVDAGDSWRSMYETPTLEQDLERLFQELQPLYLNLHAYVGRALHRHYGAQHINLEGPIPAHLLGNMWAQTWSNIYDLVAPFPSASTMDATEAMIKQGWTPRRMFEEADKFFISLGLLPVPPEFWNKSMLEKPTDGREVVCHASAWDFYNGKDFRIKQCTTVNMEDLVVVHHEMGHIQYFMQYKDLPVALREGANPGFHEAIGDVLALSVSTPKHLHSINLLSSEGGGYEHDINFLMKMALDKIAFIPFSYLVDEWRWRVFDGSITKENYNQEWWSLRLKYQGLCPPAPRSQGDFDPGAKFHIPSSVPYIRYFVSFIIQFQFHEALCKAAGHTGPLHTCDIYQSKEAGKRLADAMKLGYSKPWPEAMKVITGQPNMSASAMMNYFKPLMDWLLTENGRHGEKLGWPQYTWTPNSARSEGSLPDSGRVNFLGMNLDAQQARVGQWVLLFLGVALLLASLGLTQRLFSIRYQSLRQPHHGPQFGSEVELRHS

Substance: IER tripeptide
- ACE inhibition (FAPGG hydrolysis, absorbance at 340 nm), IC50: 0.06 mg/ml and 0.144 mM
